assay: soluble on expression in E. coli; label from the status in PepcDB or PDB records

Soluble on expression in E. coli, not soluble:
MSPEEVKARGWKELDVILVTGDAYVDHSSFGTAIIGRVLEDAGFRVGIIAQPRWENPEDFKKLGKPRLFFSVSAGNTDSMVSNLTPGLKPRNKDAYSPGGKTGLRPNRAAIIYSNRIKEAFPDMPIVLGGIEASMRRFAHYDYLSDKVRQSILADAPADLVVYGMGELQIVEIAKRLQAGEDIKGIRDISGTVWKMEVKAWKELKGKGKEKAGEQDESENATEEVAKDKSLDPAEFFKEYVEIPSFSEVSQDKAVFAKAFRTYFLEQNPVTGKGIVQPHPKTIIIQNKPMRPLTEAELDHVYELPYTGETHPSYTEPVPALEMVKFSLTTHRGCF
MSPENKICMEQSEDGDLDAGDELFEEVDGDGKGEIFANRELLNIDHVPDENRIVGRDEHITELANEIGPAVTGSPPNSVILYGKTGSGKSLVANHVMERARREAQRRDRRLATVTVDCAQSRGEADTVQTIADKINRSTSGVTVPTRGISTNEYYNRLWQILGTEYDAALITLDEVDRLSDDDILMILSRAREAGKVDVPIGIISISNKVNFREQMTERVKSSLGHNEMIFDPYDGEQLRQILENRKDAFQEDILMPGVIPKTAALAAQRHGDARKAIRLLRHAGDYAKTNNIGTVKESHLELAQEQAEVERLKELISGLPPHSKYVLYALANLTDGTTNSNDWFRTTVIYDVYEEVCKTEATDTLTTDTIRGLLNELAFLEITESNQEHGGMGKGTYKEHRLLWDPNVVFKMNPGSAQVDTDR
MSPTLTHLALHVPDLDACIAFYETFCGMRVIHRRPGKGSQIVWMAEPGQEQRFIFVIMPGGQPRNLASDDYSHFGFALSSRAAVDDLARRAEAAGCLVWAPRDEPYPVGYYCGLRDPAGNYVEFSYGQPLGPGSEALPIP
MSQANANFLDNSKVSANKTAESGQLKEFRTPPHNLAIEQAVLAALMTVAESFEQVNDLLKENDFYATRHKYIFRAIEKLAQENSPYDAVLVNDWLLKQNLLDAIGGEEYLMQLMADSPSSFYNLETYASKIKEFSTLRSMIKVSSDILQNAYDTKGRPVSEILDLAETSIFSLAEQHNNNKKDAGPKSISSVTADVISKLDELSKLDGNITGLTTGFLELDNKTYGMQSGDMIIVAARPSMGKTTFAMNLVESVLFNCNLPALVFSMEMPADSIAMRLISSYGKVHQGHLRSGKLDGDEWSKVTGTILQLQEKHLYIDDSSALPPTELRARARRIAKQHGGKLGCIMIDYLQLMKVPGMGDNRVGEIGEISRSLKALAKEMDCPVIALSQLNRSLENRPNKRPVMSDLRESGAIEQDADLIMFIYRDEVYNKESKEAGTAEIIIGKQRNGPIGTVRLAFEGQYTRFSNLSPEYYSQYDDEE
MSQLNDSDIILFEYNFHYQNIRSKNTLDIAFGIDRNFLFGCGVAIASILLNNREISCEFHVFTDYISDKDKLYFSDLAKQYNSRINIYVINCDKLKSLPSTKNWTYATYFRFIIADYFYHKHEKILYLDADIACKGSIKELLDYQFSTNEIAAVVAERDVEWWQNRASVLTTPQLASGYFNAGFLLINIDEWNLNNISSKAIEMLRDPDWVSKITHLDQDVLNVLLNGKVKFISEKYNTRYSINYELKDKVDNPVNDDTVFIHYVGPTKPWHEWADYPVSRSFLIAKAASPWSKEDLLKPVNSNQYRYCAKHKFKQKHYMAGIFNYLKYYKEKCF
MSQQELFFEVRRNRSHIYLDAEESHSVMELKLMLAGITRDPVNHMELWKLDEDGNKSQLLHDTATLSDAGFSSTNAKAQCPAALGLRLTNAEEHLTISDVSTAPPIPDTMRQEQAPQE
MSQSYHRPRPAGMAGAILDKQASKFNDVEAGYLLEWIRDLTKEDFDCEASRDNFREQLKDGQRLCKLVNAIKAGSVKKIMKPISNFNCLENINQFSTAARSLGVKDEETFQSVDLFDGRDLFSVTVTLQSLARKVEKLGITPPKQVSKDQIVNQ
MSRAEFIRFLQVLEEDLPFRALFQEADPEEILKLADQHGFIFSDEIKGRFLNRWAGVYFCPFANDVGRLCPKMVPEGFSTLLHYSQTTCTKEDKVERFDFRAGGYYEGVKAVTG
MSRGSSAGFDRHITIFSPEGRVYQVEYAFKAINSTNLTAVAVKGADAAVIAVQKRVPDSLIVADTVTSVYQISQSVGCCAIGMIPDAKFQIKRAQGEAASWKYKNGYDMPCELLAKKMADLNQYYTQNAEMRSLGCALLFISYDDEKGPEVYRVDPAGYYRGMKGVSVGVKQLPATSFLEKKIKKKSELTSTEAIELAIEALQTSLGIDVRSKDLEVVVVTKDNSKFTKLTSDQVEHHLNQIANRD
MSRLVIPSHSPNEEGNVVRVTPESAGWEYVGFEVYVLAKGQTLRKETKDQEACLVLLKGKANISTKLERWEQIGLRMDVSEKVPPYSVYIPSNDFYEVQAVTDLELAVCLAPGKGTYPARLIPPSEVGVEIRGAGNIERRVHNILPESQPADSLLVVEVFTPEGNWSSYPPHKHDQDNLPHESYLEETYYHKINPDHGFMVQRVYTDDRSIDETMVVKNGDVVLVPKGYHPVSAPPGYEGYYLNVMAGPVRTWKFHNDPDHEWVMESKLAAKQK
MSRNPFDDDYRPSAASSTMPVKSYTTMGHYSGEDEADYYEREIEKTLQESLDSTERSRRHLENSEKIGTSTAQQLLEQREKLENTEKNLDEIHRTTQMTQRNLNSLKSFFGGMFKNKFTKKPQEPTETPTVPQSKSASRLSETATNLSSGGGSATFSGPSGQRTLTESSRSAIKGTRWEAMDNQIDENLDMMSANLRNLQRLGADLGKEVDSQNEMLDRIQYKAERNDGIVRDQDKQMQKILGTGASTSQTTAESLTPSMDTSTKMSLMMKATSLWK
MSRNRVMSIDFQQLPHAGIRSLIPYVPGKSIEELAKEKGITDIIKLASNENPLGCSPLALSVIQTMSSHYIATYPSPWNHPLMSKLASYLKVKPEQLFLSNGSDYLFNILLNCFALHTDRHILTHDYAFSTYAIQANSLQIPINSVPIGHNWEVNITDIVNACNQQTGIIFIANPNNPTGVLIQQEEIKYLLEQIPKSTLLVLDEAYYEFAASQLTVNSLDWLEEHPNLVVTRTFSKIYGMAGLRLGYAIANPSIINILKRVQLPFIVNQVALAAAYAAIDDDDFIQSSLKMNNEGMLQLQAGFNELNIKYLPSSCNFLTFDCEEDSMALYNYLLDNGIIVRPLHAYKMNNFIRVTIGTKEQNSRFLTALKNFYL
MSRPKAIVRHGKRDTIVALLGWAGAVDRNVEKYAGIYQKKGYTTVQFTALAAVKGWGTKDGRNVDHLASTLDSVLINPSNRLVFHVFSMNGFIALTSLDSQFPELKAIEKCDGIFMDSCPACFSFSIENMQKHALVMNHVYDQLIKNSNFVLGNFYKVYKKWETARFGYQMIMDTMSIKAGLCTIEEANPFFYLLNHPHLPPILTSIFSDNDIVCSADEINLFNECAAKKSDKKRQIMATRLKDTAHVEHFRKYPKLYLEKMDEFLQKVEKLRNGGNSKL
MSRPRAKLTGNFPGCPVESALSFLDGKWKGVILYHLINEGTLRFNELRRHIPSVTQRMLTKQLRELEEAGLISRTVFPVVPPRVDYALTPLGETMRPVISALKSWGDAHVVCKNGEKYTRAPTVAEKAA
MSRRVEFDLSTEDHSDRRRTNTFSSDEDGVPNEVADYLVYFSRMVDEQNVPEILTLYDQAFPDLTERFFRDRMWPDENVVERIIGPGNKLFIILYKELYYRQLYARNTRGPLLVHRYESFMNYQELFSELLSSKDPIPLSLPNVWLWDIIDEFVYQFQAFCLYKANPGKRNADEVEDLINIEENQNAWNIYPVLNILYSLLSKSQIVEQLKALKEKRNPDSVADEFGQSDLYFKLGYFALIGLLRTHVLLGDYHQALKTVQYVDIDPKGIYNTVPTCLVTLHYFVGFSHLMMRNYGEATKMFVNCLLYIQRTKSVQNQQPSKKNFQYDVIGKTWDQLFHLLAICLAIQPQRIDESIASQLSERCGERMMHMANGNIDEFRNAFATGCPKFLSPTTVVYEGVNQSKEPLLRQTQSFLEGIESQMALPVLRGYLKLYTTLPTKKLASFMDVDDEHYDSFIGKLLTYKMIVNELGKEAGPSSADDDEPQTDIDFYVDRDMINIADTKVARHVGEHFIRHIQKLQEVQDVLKRLDIQKP

Soluble on expression in E. coli, soluble:
MSPTLQDARLLWDFLGQGRCHVPCELLVVCGSYDLRVCDHACELLERGLAERLLFTGNTGHWTRHLWVEPEAELFARHARARGVSDSLIVIEPRATNFAENIAFARELFPDLRRATFVTKPNSIRRVALTLPVRWPGLEGHVDAPDYAFPDGISNLVGVLGVIDEMVGDLDRIMRYPALGFQVACPIPAQVMDAWERLVARGFDRHLVNPPRLEHHHHHH
MSQPSGPPIGFSNPDYIPPKALDLLKPALTIRAPPEETGMLGELQEDVLQVLSLPCRHTNACLPACLQSLPILCSF
MSQWYELQQLDSKFLEQVHQLYDDSFPMEIRQYLAQWLEKQDWEHAANDVSFATIRFHDLLSQLDDQYSRFSLENNFLLQHNIRKSKRNLQDNFQEDPIQMSMIIYSCLKEERKILENAQRFNQAQSGNIQSTVMLDKQKELDSKVRNVKDKVMCIEHEIKSLEDLQDEYDFKCKTLQNREHETNGVAKSDQKQEQLLLKKMYLMLDNKRKEVVHKIIELLNVTELTQNALINDELVEWKRRQQSACIGGPPNACLDQLQNWFTIVAESLQQVRQQLKKLEELEQKYTYEHDPITKNKQVLWDRTFSLFQQLIQSSFVVERQPCMPTHPQRPLVLKTGVQFTVKLRLLVKLQELNYNLKVKVLFDKDVNERNTVKGFRKFNILGTHTKVMNMEESTNGSLAAEFRHLQLKEQKNAGTRTNEGPLIVTEELHSLSFETQLCQPGLVIDLETTSLPVVVISNVSQLPSGWASILWYNMLVAEPRNLSFFLTPPCARWAQLSEVLSWQFSSVTKRGLNVDQLNMLGEKLLGPNASPDGLIPWTRFCKENINDKNFPFWLWIESILELIKKHLLPLWNDGCIMGFISKERERALLKDQQPGTFLLRFSESSREGAITFTWVERSQNGGEPDFHAVEPYTKKELSAVTFPDIIRNYKVMAAENIPENPLKYLYPNIDKDHAFGKYYSR
MSRGYYRTEEEIVQDKVLHRDPGIIEENYASKPPSRRSSSNTNPDSLVNQKHAQPLPSPLHSPVKSVTGSSKNQSPKMAPVRSNSRGSSASSEEDIGTRSFSISVLKDSGTKVEIMLKAHGLRKKKGFINSLVTVFKKPSQPSRLLSNGKFTEFVLTEHALRFLLEVKTDKKKKKGNGNRLDTFLCEVKRFPSDVNPDSAEFEVLEPASGEAFILLTLIKTGNLSTNWKEFLDTHGTLDVSTI
MSRLQLAIEERDEAIARAKHMEMSLKVLENINPEENDMTLQELLNRINNADTGIAIQKNGAIIVDRIYKTKECKMRITAEEMSALIEERDAALSKCKRLEQELHHVKEQNQTSANNMRHLTAENNQERALKAKLLSMQQARETAVQQYKKLEEEIQTLRVYYSLHKSLSQEENLKDQFNYTLSTYEEALKNRENIVSITQQQNEELATQLQQALTERANMELQLQHAREASQVANEKVQKLERLVDVLRKKVGTGTMRTVI

— the DeepSol protein solubility set
